In patent US20060147914A1 (Johns Hopkins, published 2006):

Target: T1, native mGluR5 in detergent extracts of rat hippocampus (rat, UniProt P31424 21-1203, limits assumed)
T1 construct: Native protein in tissue lysate
Assay: in vitro binding assay with detergent extracts of hippocampus
Procedure: 40 ml of beads were then incubated with lysate from one hippocampus for one hour at 4° C., washed three times with PBS, and bound mGluR5 was eluted by boiling in 3× loading buffer.

T1 sequence (P31424 21-1203 limits assumed): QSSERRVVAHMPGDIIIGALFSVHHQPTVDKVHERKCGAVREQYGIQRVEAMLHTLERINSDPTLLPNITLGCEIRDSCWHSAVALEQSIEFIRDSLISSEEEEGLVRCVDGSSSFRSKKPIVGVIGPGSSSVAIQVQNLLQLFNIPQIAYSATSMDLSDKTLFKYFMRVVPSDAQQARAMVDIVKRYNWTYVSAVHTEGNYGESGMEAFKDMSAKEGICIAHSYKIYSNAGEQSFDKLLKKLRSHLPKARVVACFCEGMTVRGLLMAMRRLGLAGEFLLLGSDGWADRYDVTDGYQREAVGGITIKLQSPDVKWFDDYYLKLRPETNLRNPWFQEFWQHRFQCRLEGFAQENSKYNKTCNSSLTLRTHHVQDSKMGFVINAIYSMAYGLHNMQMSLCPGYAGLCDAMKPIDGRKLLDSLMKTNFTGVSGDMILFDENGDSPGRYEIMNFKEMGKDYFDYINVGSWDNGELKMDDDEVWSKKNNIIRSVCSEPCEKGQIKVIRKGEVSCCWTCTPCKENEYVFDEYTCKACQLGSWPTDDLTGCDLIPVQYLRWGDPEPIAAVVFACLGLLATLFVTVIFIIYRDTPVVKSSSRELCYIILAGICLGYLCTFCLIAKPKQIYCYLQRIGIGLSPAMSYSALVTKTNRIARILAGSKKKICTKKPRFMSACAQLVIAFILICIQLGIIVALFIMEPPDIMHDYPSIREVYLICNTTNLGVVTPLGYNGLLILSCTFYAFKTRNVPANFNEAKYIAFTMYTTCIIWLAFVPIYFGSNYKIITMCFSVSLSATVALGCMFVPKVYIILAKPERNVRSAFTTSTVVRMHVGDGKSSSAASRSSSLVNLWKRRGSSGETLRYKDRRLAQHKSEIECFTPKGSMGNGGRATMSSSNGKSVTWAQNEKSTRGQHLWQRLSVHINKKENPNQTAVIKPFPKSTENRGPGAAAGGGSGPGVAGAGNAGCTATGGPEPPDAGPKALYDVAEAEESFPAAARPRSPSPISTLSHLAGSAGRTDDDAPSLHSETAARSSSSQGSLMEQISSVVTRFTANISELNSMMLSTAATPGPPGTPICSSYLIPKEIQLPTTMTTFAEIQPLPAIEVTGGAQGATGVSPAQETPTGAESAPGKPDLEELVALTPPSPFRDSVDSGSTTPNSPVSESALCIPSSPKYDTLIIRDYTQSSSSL

B1: GST-Homer fusion protein (rat Homer) used with hippocampal extracts (other)
chain: GEQPIFSTRAHVFQIDPNTKKNWVPTSKHAVTVSYFYDSTRNVYRIISLDGSKAIINSTITPNMTFTKTSQKFGQWADSRANTVYGLGFSSEHHLSKFAEKFQEFKEAARLAKEKSQEKMELTSTPSQESAGGDLQSPLTPESINGTDDERTPDVTQNSEPRAEPAQNALPFSHRYTFNSAIMIK
notes: also called Homer GST fusion protein; Homer GST-fusion protein; not shown: glutathione S-transferase (GST) fusion partner, bacterially expressed
B1: binds.
